Values of other authors as cited in PMC8481289.

Molecular target: UFC1 (Homo sapiens) (UniProt Q9Y3C8)
Sequence (Q9Y3C8 whole entry): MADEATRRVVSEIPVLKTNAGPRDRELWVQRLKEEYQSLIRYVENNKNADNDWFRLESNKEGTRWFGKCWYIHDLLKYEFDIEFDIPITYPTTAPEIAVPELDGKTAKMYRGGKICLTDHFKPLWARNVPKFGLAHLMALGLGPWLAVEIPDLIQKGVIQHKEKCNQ

Chain of UBA5 (Q9GZZ9 whole entry): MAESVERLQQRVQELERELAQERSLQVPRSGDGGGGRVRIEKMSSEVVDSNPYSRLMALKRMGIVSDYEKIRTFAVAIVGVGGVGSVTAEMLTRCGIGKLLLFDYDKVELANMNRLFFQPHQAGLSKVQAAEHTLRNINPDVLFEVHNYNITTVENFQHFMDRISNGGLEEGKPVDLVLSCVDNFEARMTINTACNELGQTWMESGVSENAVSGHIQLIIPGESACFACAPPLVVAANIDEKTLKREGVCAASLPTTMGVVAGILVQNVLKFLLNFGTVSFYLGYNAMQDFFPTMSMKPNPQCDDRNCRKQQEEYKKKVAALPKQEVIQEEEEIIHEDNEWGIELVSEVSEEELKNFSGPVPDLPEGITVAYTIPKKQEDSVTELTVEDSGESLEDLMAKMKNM

Kd: 1000 nM
Substance: UBA5 (from UniProt Q9GZZ9)
